# Assay results reported in patent US20070178531A1 (BIOCHECK, published 2007).
# T1: Mouse Id3: Histidine (mouse, UniProt P41133 1-119)
# T1 construct: Fusion protein made in E. coli from vector pGW07; also called m-Id3: His; Mouse Id3 (coated wells); not shown: His tag
# T1 sequence: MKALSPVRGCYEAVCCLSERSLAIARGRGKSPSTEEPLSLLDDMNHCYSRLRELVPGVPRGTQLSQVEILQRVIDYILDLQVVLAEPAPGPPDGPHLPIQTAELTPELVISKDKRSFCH
# T2: Human Id1: Histidine (human, UniProt P41134 1-155, limits assumed)
# T2 construct: Fusion protein made in E. coli from vector pGW07; also called h-Id1: his; not shown: His tag
# T2 sequence (looked up): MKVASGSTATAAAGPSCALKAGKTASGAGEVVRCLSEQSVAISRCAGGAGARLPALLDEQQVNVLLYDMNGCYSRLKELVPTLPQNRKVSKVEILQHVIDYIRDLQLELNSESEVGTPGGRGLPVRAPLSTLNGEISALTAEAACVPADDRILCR
# T3: Mouse Id2: Histidine (mouse, UniProt P41136 1-134, limits assumed)
# T3 construct: Fusion protein made in E. coli from vector pGW07; also called m-Id2: His; not shown: His tag
# T3 sequence (looked up): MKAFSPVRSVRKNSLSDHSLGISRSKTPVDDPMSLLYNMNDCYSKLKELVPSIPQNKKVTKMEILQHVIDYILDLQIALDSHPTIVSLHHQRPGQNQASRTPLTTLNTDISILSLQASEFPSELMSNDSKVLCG
# T4: Human Id2: Histidine (human, UniProt Q02363 1-134, limits assumed)
# T4 construct: Fusion protein made in E. coli from vector pGW07; also called h-Id2: His; not shown: His tag
# T4 sequence (looked up): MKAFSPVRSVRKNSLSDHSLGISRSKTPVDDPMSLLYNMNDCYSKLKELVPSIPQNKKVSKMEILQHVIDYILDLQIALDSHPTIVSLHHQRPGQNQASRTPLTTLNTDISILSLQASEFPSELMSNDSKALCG
# T5: Human Id3: Histidine (human, UniProt Q02535 1-119 at identity 1.00))
# T5 construct: Fusion protein made in E. coli from vector pGW07; also called h-Id3: His; Human Id3 (coated wells); not shown: His tag
# T5 chain: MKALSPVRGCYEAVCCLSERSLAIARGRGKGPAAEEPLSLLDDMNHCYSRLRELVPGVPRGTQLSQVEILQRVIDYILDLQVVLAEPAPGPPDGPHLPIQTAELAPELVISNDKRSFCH
# T6: Mouse Id1: Histidine (mouse, UniProt P20067-2 1-148, limits assumed)
# T6 construct: Fusion protein made in E. coli from vector pGW07; also called m-Id1-His; not shown: His tag
# T6 sequence (looked up): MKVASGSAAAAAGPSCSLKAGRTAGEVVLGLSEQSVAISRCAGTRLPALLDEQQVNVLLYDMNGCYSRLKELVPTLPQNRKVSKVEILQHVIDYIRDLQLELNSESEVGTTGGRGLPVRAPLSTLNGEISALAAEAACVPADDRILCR
# What was measured:
# [1] = target: T1, Mouse Id3: Histidine; assay: ELISA, Ab 0.050 µg/ml
# [2] = target: T2, Human Id1: Histidine; assay: ELISA, Ab 0.250 µg/ml
# [3] = target: T3, Mouse Id2: Histidine; assay: ELISA, Ab 0.250 µg/ml
# [4] = target: T4, Human Id2: Histidine; assay: ELISA, Ab 0.250 µg/ml
# [5] = target: T1, Mouse Id3: Histidine; assay: ELISA, Ab 0.250 µg/ml
# [6] = target: T5, Human Id3: Histidine; assay: ELISA, Ab 0.250 µg/ml
# [7] = target: T6, Mouse Id1: Histidine; assay: ELISA, Ab 0.250 µg/ml
# [8] = target: T2, Human Id1: Histidine; assay: ELISA, Ab 0.500 µg/ml
# [9] = target: T3, Mouse Id2: Histidine; assay: ELISA, Ab 0.500 µg/ml
# [10] = target: T4, Human Id2: Histidine; assay: ELISA, Ab 0.500 µg/ml
# [11] = target: T1, Mouse Id3: Histidine; assay: ELISA, Ab 0.500 µg/ml
# [12] = target: T5, Human Id3: Histidine; assay: ELISA, Ab 0.500 µg/ml
# [13] = target: T6, Mouse Id1: Histidine; assay: ELISA, Ab 0.500 µg/ml
# [14] = target: T3, Mouse Id2: Histidine; assay: ELISA, positive control (stated to be BCH-4/6-1) 0.25 µg/ml
# Method: (§1) 1. Dispense 100 μL of antibody diluent, diluted rabbit monoclonal human Id3, and mouse/human Id3 hybridoma supernatants into appropriate wells. […] 2. Incubate at room temperature with mechanical shaking at 750 rpm for 90 minutes. [0165] 3. Remove the incubation mixture by flicking plate content into an appropriate waste container followed by rinsing the wells 5 times with distilled water. [0166] 4. Strike the wells sharply onto absorbent paper or paper towels to remove all residual water droplets. [0167] 5. Dispense 100 μL of 1:50,000 Goat Anti-Rabbit IgG-HRP Conjugate Reagent into each well. Gently mix for 5 seconds. [0168] 6. Incubate at room temperature with mechanical shaking at 750 rpm for 90 minutes. [0169] 7. Repeat procedures 3 and 4. [0170] 8. Dispense 100 μL of TMB Reagent into each well. Gently mix for 5 seconds. [0171] 9. Incubate at room temperature with mechanical shaking at 750 rpm for 20 minutes. […] 10. Add 100 μL of Stop Solution (1N HCl) into each well. [0173] 11. Gently mix for 10 seconds to ensure a complete mixing. [0174] 12. Read optical density at A450 nm.
# (§2) The materials and method are the same as those described in Example 9 except the following.
# (§3) Rabbit monoclonal anti-mouse Id3, hybridoma supernatant was used as the test antibody. Protein G purified, rabbit monoclonal anti-mouse/human Id3 antibody, BCH-4/6-1, 0.92 mg/ml in 0.25% BSA was used as positive controls.
# [15] = target: T4, Human Id2: Histidine; assay: as above
# Method: as §1, §2, §3
# [16] = target: T5, Human Id3: Histidine; assay: as above
# Method: as §1, §2, §3
binder,measurement,setting,value
"rabbit monoclonal anti-mouse/human Id3, clone #BCH-4/#6-1 (antibody, V domains shown, Rabbit IgG from a rabbit hybridoma; also called m/h Id3 MoAb 6-1) VH: QSVEESGGRLVTPGTPLTLTCTASGFSLSNVYIHWVRQAPGKGLEWIGYISDGDTARYATWAKGRFTISKTSSTTVNLKMTSLTTEDTATYFCARQGFNIWGPGTLVTVSL VL: AVLTQTPSPVSAAVGGTVSISCQSSQSVWNNNWLSWFQQKPGQPPKLLIYETSKLESGVPSRFKGSGSGTQFTLTISDVQCDDAATYYCLGGYWTTSDNNVFGGGTEVVVK",A450,[1],1.72 A450
same,A450,[2],0.061 A450
same,A450,[3],0.071 A450
same,A450,[4],0.071 A450
same,A450,[5],3.13 A450
same,A450,[6],2.74 A450
same,A450,[7],0.058 A450
same,A450,[8],0.062 A450
same,A450,[9],0.073 A450
same,A450,[10],0.062 A450
same,A450,[11],3.47 A450
same,A450,[12],3.3 A450
same,A450,[13],0.067 A450
same,A450,[14],2.44 A450
same,A450,[15],2.54 A450
same,A450,[16],2.69 A450
